We go through 7 molecules from patent US20200262869A1, “PEPTIDE ANTIBIOTIC COMPLEXES AND METHODS OF USE THEREOF” (GENENTECH, INC., priority 2017, published 2020).

One may read the MIC as the least concentration at which growth counts as inhibited. Low values mean a more susceptible organism, high ones a less susceptible organism. Usually kinact stands for the maximal first-order rate at which the target is inactivated.

Values after ≈ are worked out from the molar mass of the structure shown.

The test system of experiment [1] is MDR K. pneumoniae CDC 0106. Kind of experiment: MIC against MDR clinical isolate. The class given is cell-based. How it is done:
(§1) Minimum Inhibitory Concentration (MIC). MICs were determined by performing two-fold serial dilutions of compound in Mueller Hinton II cation-adjusted broth to a final volume of 0.1 m1 in round-bottom 96-well assay plates (Corning Life Sciences No 3788). Each well was inoculated with 5×10^5 CFU/ml and incubated at 37° C. without agitation for 18 hours. Plates were scored by eye, and the lowest compound concentration preventing visible growth was determined to be the MIC.

Experiment [2] has as its system P. aeruginosa ATCC 27853. Kind of experiment: MIC, broth microdilution. The class given is cell-based. How it is done: as §1
(Dilution methods test growth across graded concentrations, often in twofold steps.)

Experiment [3] concerns C. werkmanii ATCC 51114. The experiment is described as follows: MIC, broth microdilution. The class given is cell-based. Here is the method:
as §1

The test system of experiment [4] is E. cloacae ATCC 13407. Kind of experiment: MIC, broth microdilution. The class given is cell-based. Here is the method:
as §1

Experiment [5] concerns A. baumannii ATCC 17978. Kind of experiment: MIC, broth microdilution. The class given is cell-based. Here is the method:
as §1

Experiment [6] concerns K. pneumoniae ATCC 43816. The experiment is described as follows: MIC, broth microdilution. The class given is cell-based. Particulars: K. pneumoniae ATCC 43816. Here is the method: as §1
Experiment [7] has as its system E. aerogenes ATCC 13408. Kind of experiment: MIC, broth microdilution. The class given is cell-based. Here is the method: as §1
The test system of experiment [8] is E. coli ATCC 25922. The experiment is described as follows: MIC, broth microdilution. The class given is cell-based. Particulars: E. coli ATCC 25922. How it is done: as §1
Experiment [9] relates to S. marcescens CDC4385-74. The experiment is described as follows: MIC, broth microdilution. Type of experiment: cell-based. How it is done:
as §1

The target of experiment [10] is LepB P88T (E. coli ATCC 25922) (E. coli) (UniProt P00803). Kind of experiment: cell-based or functional assay.
Experiment [11] deals with LepB A297V (E. coli ATCC 25922) (E. coli) (UniProt P00803). Kind of experiment: cell-based or functional assay.
The target of experiment [12] is LepB V149(VVGLP) (E. coli ATCC 25922) (E. coli) (UniProt P00803). Kind of experiment: cell-based or functional assay.
Experiment [13] concerns the target LepB P88R (E. coli ATCC 25922) (E. coli) (UniProt P00803). Kind of experiment: cell-based or functional assay.
Experiment [14] concerns the target LepB L142R (E. coli ATCC 25922) (E. coli) (UniProt P00803). The experiment is described as follows: cell-based or functional assay.
The target in experiment [15] is LepB P88Q (E. coli ATCC 25922) (E. coli) (UniProt P00803). Kind of experiment: cell-based or functional assay.
Experiment [16] addresses LepB D143Y (E. coli ATCC 25922) (E. coli) (UniProt P00803). Kind of experiment: cell-based or functional assay.
Experiment [17] addresses LepB V133F (E. coli ATCC 25922) (E. coli) (UniProt P00803). Kind of experiment: cell-based or functional assay.
Experiment [18] concerns the target LepB F85S (E. coli ATCC 25922) (E. coli) (UniProt P00803). Kind of experiment: cell-based or functional assay.
Experiment [19] concerns the target LepB E83K (E. coli ATCC 25922) (E. coli) (UniProt P00803). Kind of experiment: cell-based or functional assay.
Experiment [20] deals with LepB in E. coli K-12 MG1655 (E. coli) (UniProt P00803). The experiment is described as follows: cell-based or functional assay.
Experiment [21] has as its target LepB P88L (E. coli ATCC 25922) (E. coli) (UniProt P00803). The experiment is described as follows: cell-based or functional assay.
For experiment [22], the target named is full length recombinant LepB from E. coli (E. coli) (UniProt P00803). The experiment is described as follows: kinetic enzyme assay, full-length LepB in detergent micelle, fluorogenic substrate Dabcyl-DAP-PAKAAE-Edans (SEQ ID NO: 6), 2-step irreversible binding model (Dynafit).

In the case of Gentamicin, the MIC in [1] (MDR K. pneumoniae CDC 0106) is above 64 µg/mL.

The molecule `CN(C)c1cc(NC(=O)CNC(C)(C)C)c(O)c2c1C[C@H]1C[C@H]3[C@H](N(C)C)C(O)=C(C(N)=O)C(=O)[C@@]3(O)C(O)=C1C2=O` [Tigecycline] came in with an MIC in [1] (Klebsiella pneumoniae) of 2 µg/mL (≈ 3.41 µM).

Colistin: the MIC in [1] (MDR K. pneumoniae CDC 0106) worked out at 16 µg/mL.

As for `CCCCCCCCCCCCCCCC(=O)N(C)[C@H](CO)C(=O)N[C@H](C)C(=O)NCC(=O)N(C)[C@@H]1C(=O)N[C@@H](C)C(=O)N[C@H](C(=O)O)Cc2ccc(O)c(c2)-c2cc1ccc2O` [Arylomycin A-C16, reference compound], the MIC in experiment [2], in experiment [3], in experiment [4], in experiment [5], in experiment [6] and in experiment [7] was above 64 µg/mL in each case. Further, the MIC in experiment [8] and in [9] was above 64 µg/mL each time.

`C[C@@H](O)[C@H]1C(=O)N2C(C(=O)O)=C(S[C@@H]3CN[C@H](C(=O)N(C)C)C3)[C@H](C)[C@H]12` [Meropenem] had an MIC in [1] (Klebsiella pneumoniae) above 64 µg/mL.

As to G0775 (peptide), the Fold MIC Increase in [10] is 4 fold; in [11], 4 fold; in [12], 128 fold; in experiment [13] it was 16 fold; in experiment [14] it was 8 fold; in experiment [15] it was 4 fold. Further, the Fold MIC Increase stood at 8 fold in experiment [16]; 16 fold in experiment [17]; 8 fold in experiment [18]; 16 fold in [19]; 16 fold in experiment [21]. This molecule displayed a G0775 MIC (µg/ml), MG 1655 - LepB High (Increase LepB expression level) in experiment [20] of 1 µg/mL. The molecule further displayed a G0775 MIC (µg/ml), MG 1655 - LepB Low (Reduced LepB expression level) in experiment [20] of 0.008 µg/mL. Further, the G0775 MIC (µg/ml), MG1655 WT in [20] was found to be 0.125 µg/mL. Also, in experiment [22], the kinact turned out to be 0.0007 s⁻¹.

Take `C[C@H]1COc2c(N3CCN(C)CC3)c(F)cc3c(=O)c(C(=O)O)cn1c23` [Levofloxacin]: the minimum inhibitory concentration (MIC) in experiment [1] (Klebsiella pneumoniae) was above 64 µg/mL.
